Results as given in article PMC9224989, “Structural Analysis of Human Fascin-1: Essential Protein for Actin Filaments Bundling” (Life, 2022).

Target: the molecule itself
Assay: native gel or EMSA; 8% native PAGE; equal amounts (2.5 μg) of FLF and CHF mixed and incubated for 1 h at 4 °C; lanes CHF, FLF, FLF + CHF

B1: C-terminal half of human fascin 1 (CHF) (domain or fragment)
chain: not shown
notes: human fascin 1, residues 260-493 (beta3 and beta4-trefoil domains); also called N-terminal domain deletion (beta-trefoil 1 and 2); C-domain; not shown: His tag (from the vector pFastBacHT)
  stoichiometry N: 2
